Test results taken from patent US20260055190A1, “ANTIBODIES FOR PLATELET FCyRIIA AND RELATED METHODS OF USE” (UNIVERSITY OF VERMONT AND STATE AGRICULTURAL COLLEGE, priority 2022, published 2026).
Residue numbers refer to the chain shown, from its start. Entries after “also recorded” stand apart in the source; their conditions may differ. Values belong to the molecule of their own block, whether it stands above or below them.

Legend:
FcγRIIa = assay: Phosphorylation of FcγRIIa during platelet activation (immunoprecipitation, Western blot with anti-phosphotyrosine 4G10); format: cell-based, human
Method: FIGS. 1A-1E are western blots and graphs showing that platelet activation results in FcγRIIa being phosphorylated: Platelets (2×10^8 in 0.5 ml) from low-risk subjects isolated with the use of gel filtration were exposed to no agonist (FIG. 1E) or to thrombin (50 nM) (FIG. 1A), convulxin (10 ng/ml) (FIG. 1B), ADP (25 μM) (FIG. 1C), and PAF (100 nM) (FIG. 1D) for selected intervals before preparation of platelet lysates. FcγRIIa was separated by immunoprecipitation and Western blots were probed with an antiphosphotyrosine antibody (4G10), stripped, and re-probed with anti-FcγRIIa to confirm equal loading (data not shown). Fluorescence intensity of bands was quantified with the use of a Li-Cor system. Results (n=3-5 for each condition) are peak intensity that is not altered by adjusting the contrast of the image or the size of the area of interest, and were compared with those obtained when no agonist was used (Student's t test, *p<0.05, **p<0.01). […]
Immunoprecipitation was performed overnight at 4° C. with the use of goat anti-CD32A/C (Santa Cruz Biotechnology, Santa Cruz, Calif.) or a mouse anti-phosphotyrosine conjugated with magnetic beads (4G10, Millipore, Billerica, Mass.). […] Bands were detected with the use of use of a Li-Cor Odyssey Infrared Imaging system (Li-Cor Biosciences, Lincoln, Nebr.) or chemiluminescence (Amersham/General Electric Healthcare, Piscataway, N.J.).

[1] = biological target: FcγRIIa on non-fixed human platelets (also as present in platelet lysates) (human) (UniProt P12318); assay: cell-based or functional assay
[2] = tested on: human stem cell derived Megakaryocytes; assay: IFNγ effect on FcγRIIa expression by human stem cell derived megakaryocytes; format: cell-based; conditions: IFNγ treatment, FIG. 11
Excerpt: The graphs on the lower aspect of the figure show evidence of differentiation of the cells into megakaryocytes.

Megakaryocyte cell line = assay: IFNγ effect on FcγRIIa expression by megakaryocyte cell line; format: cell-based; conditions: IFNγ treatment, FIG. 10
Excerpt: The graphs on the lower aspect of the figure show evidence of differentiation of the stem cells into megakaryocytes.

[3] = biological target: T1, FcγRIIa on non-fixed human platelets (also as present in platelet lysates) (human, UniProt P12318 34-317); assay: immunoprecipitation with platelet lysates
T1 construct: Endogenous receptor of platelets from human subjects; In immunoprecipitation experiments the receptor came from platelet lysates; also called platelet FcγRIIa; CD32
T1 sequence: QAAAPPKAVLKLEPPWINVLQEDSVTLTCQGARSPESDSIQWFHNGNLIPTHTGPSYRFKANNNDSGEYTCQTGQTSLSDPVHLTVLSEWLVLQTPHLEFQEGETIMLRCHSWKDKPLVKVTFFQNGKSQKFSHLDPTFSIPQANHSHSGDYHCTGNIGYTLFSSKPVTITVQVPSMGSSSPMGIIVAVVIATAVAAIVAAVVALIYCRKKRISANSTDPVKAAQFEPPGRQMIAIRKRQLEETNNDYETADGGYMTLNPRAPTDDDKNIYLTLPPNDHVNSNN

[4] = biological target: T2, FcγRIIa on formaldehyde-fixed human platelets (human, UniProt P12318 34-317, exposed to formaldehyde fixative (residues not stated)); assay: fluorochrome labeled antibody on fixed platelets
T2 construct: Same receptor as m3, but on platelets fixed before exposure to the antibody; also called FcγRIIa on fixed platelets
T2 sequence: T1 sequence

[5] = biological target: T1, FcγRIIa on non-fixed human platelets …; assay: platelets of two subjects, non-fixed (FIG. 29)
[6] = biological target: T2, FcγRIIa on formaldehyde-fixed human …; assay: platelets of two subjects, fixed (FIG. 29)
FcγRIIa on platelets = biological target: T3, FcγRIIa on platelets (Homo sapiens, UniProt P12318); assay: Flow cytometry binding/quantification of FcγRIIa on fixed and non-fixed platelets; conditions: FIG. 29
T3 construct: endogenous in cells; host or cells: platelets from subjects' blood samples, formaldehyde-fixed or non-fixed
T3 sequence (P12318 34-317): T1 sequence with G54Q
Excerpt: One objective was to identify an antibody that was capable of quantifying FcγRIIa on the surface of platelets that were fixed, similar to quantification of FcγRIIa on non-fixed platelets. To make this assessment, selected antibodies were fluorochrome labeled. An objective was to identify a clone that could quantify FcγRIIa on the surface of fixed platelets within 10% of the quantification of previously-known antibodies on non-fixed platelets. Based on these experiments, two clones were identified, they produced the antibodies FcYRIIa-5G1 and FcYRIIa-11F9 described above.
Lysis of red blood cells can also be performed by the addition of 3% acetic acid (120 μl) to 5 μl of blood. • Incubate for 15 minutes • Add 800 μl PBS • Centrifuge for 2 minutes at 1,200 g • Decant liquid • Re-suspend platelet pellet in 1,000 μl PBS • Centrifuge for 2 minutes at 1,200 g • Decant liquid • Re-suspend platelet pellet in 1,000 μl PBS • Centrifuge for 2 minutes at 1,200 g • Re-suspend platelet pellet in 800 μl PBS with 0.2% BSA and store platelets at room temperature for at least 1 hour before assay (blocking step) • Assay tube final volume=35 μl, adding: • 5 μl of re-suspended platelet • 0.5 μg of 5G1-PE antibody • 2 μl of CD42bPECy5 (Becton Dickinson) • QS with PBS/BSA 0.2% • Incubate antibodies and platelets for 1 hours at room temperature • Dilute with 500 μl of PBS • Analyze with flow cytometry
• Analyze platelet samples using template 032522 FCquant 5G1R-PE 375V_T. Set acquisition volume to 200 ul and run samples at 200 ul/min. count 10,000 events in platelet gate (CD42b positive events). • Platelets are first gated on a FSC SSC plot • A second gate for CD42b PECY5 positive events is created • A histogram plot gated on the CD42b positive events is created. A gate is set to the right of a non-immune IgG control. The x-mean of the histogram gate positive for 5G1R-PE binding is reported • Assay tube for IgG control, adding: • 5 μl of re-suspended platelet • 2 μl of IgG-PE • 2 μl of CD42bPECy5 (Becton Dickinson) • 26 μl PBS/BSA 0.2% […]

Molecule: Nc1ncnc2c1ncn2[C@@H]1O[C@H](COP(=O)(O)OP(=O)(O)O)[C@@H](O)[C@H]1O [ADP, adenosine diphosphate]
- time after exposure at which phosphorylation of FcγRIIa was greatest (FcγRIIa; platelets from low-risk subjects, thrombin 50 nM, convulxin 10 ng/ml, ADP 25 μM, PAF 100 nM): 3 to 5 min

Molecule: CC(C)(C)n1nc(-c2ccc(Cl)cc2)c2c(N)ncnc21 [PP2]
- phosphorylation of FcγRIIa during platelet activation (FcγRIIa; IV.3 Fab 100 μg/ml, PP2 20 μM): prevented phosphorylation of FcγRIIa

Molecule: CCCCS(=O)(=O)N[C@@H](Cc1ccc(OCCCCC2CCNCC2)cc1)C(=O)O [tirofiban]
- agonist-induced activation of platelets (platelets; agonists thrombin, convulxin, ADP, PAF, PAC-1 binding or P-selectin, IV.3 100 μg/ml, PP2 20 μM, tirofiban 0.5 μg/ml): did not attenuate the activation of platelets
- activation of platelets caused by coagulation Factor XIII (platelets; summary in words): abolished
- amplification of platelet activation induced by fibrinogen (platelets; summary in words): not by tirofiban
- binding of PAC-1 to platelets (platelets; tirofiban 0.5 μg/ml): blocked completely the binding of PAC-1 to platelets; also recorded: abolished binding of PAC-1 to platelets
- agonist-induced surface expression of P-selectin (platelets; tirofiban, n=3 subjects, FIG. 5D): did not attenuate agonist-induced P-selectin expression

Molecule: IFNγ: cytokine that increases FcγRIIa expression by megakaryocytes
- expression of FcγRIIa by human stem cell derived Megakaryocytes [2]: increases the expression of FcγRIIa
- expression of FcγRIIa by Megakaryocyte cell line (Megakaryocyte cell line): increases the expression of FcγRIIa

B3: FcYRIIa-5G1: monoclonal antibody binding FcγRIIa; heavy chain SEQ ID NO 4, light chain SEQ ID NO 9 (antibody, V domains shown)
VH: EVQLQESGPELVKPGASVKISCKASGYTFTTYYIHWVKQRPGQGLEWIGWIFPGSSNTFYNEKFKGKATLTADTSAITAYMQLNSLTSEDSAVYFCSRYYYDYGYWGQGTLVTVSA
VL: ENVLTQSPAIMSASPGEKVTMTCSASSSVRYMQWYQQKSNTSPKLWIYDTSKLASGVPGRFSGSGSGNSYFLTISSMEAEDVATYHCFQGSGYPLTFGGGTKLEIK
- binding to FcγRIIa on fixed platelets compared with non-fixed platelets (FcγRIIa on platelets): binds to a greater extent to FcγRIIa on fixed platelets
- binding to FcγRIIa on fixed platelets (FcγRIIa on platelets; fixed platelets, two subjects): binds at a higher level on fixed platelets
- binding to FcγRIIa on non-fixed platelets versus commercially available antibody FLI8.26 (FcγRIIa on platelets; non-fixed platelets, two subjects): binds to a lesser extent than the commercially available antibody

Second part, the molecule after the results:

- ADP induced activation of platelets with added fibrinogen after pretreatment with IV.3 (100 µg/ml), fold induction [1]: 0.9 fold
- ADP-induced activation of platelets with added Factor XIII after pretreatment with IV.3 (100 µg/ml), fold induction [1]: 0.7 fold
Molecule: Fab fragment of IV.3

- ADP-induced activation of platelets (surface expression of P-selectin), fold induction [1]: 3.9 fold
Molecule: coagulation Factor XIII (from UniProt P00488 2-732) (enzyme)

- ADP induced activation of platelets (surface expression of P-selectin), fold induction [1]: 1.5 fold
Molecule: fibrinogen (from UniProt P02671 20-629; P02675 31-491; P02679 27-437)

- binding result [3]: binds
- binding result [4]: binds
B1: Antibody FcYRIIa-11F9 (antibody, V domains shown)
VH: EVQLQESGPELVKPGASVRISCKASGYTFTNSYMHWVKQRPGQGLEWIGWIYPENINTYYNEKFKGKATLTADRSSSTAYMQLNSLASEDSAVYFCARFYYGFGYWGQGTTLTVSS
VL: DIVMTQSHKFMSTSVGDRVIITCKASQNVISAVAWYQQKPGHSPKLLIYWASTRHTGVPDRFTGSGSGTDFTLTINSVQSEDLADYFCQQYGRYPYTFAGGTKLEIK
notes: Monoclonal antibody from a mouse hybridoma; also called 11F9 antibody

- binding result [5]: binds
- binding result [6]: binds
B2: Antibody FcYRIIa-5G1 (antibody, V domains shown)
VH: B3 VH
VL: B3 VL
notes: Monoclonal antibody from a mouse hybridoma; Fluorochrome (phycoerythrin) labelled for flow cytometry; also called 5G1 antibody; 5G1-PE
